Test [1] deals with steroid receptor coactivator 3 (SRC3), full-length, Strep II-tagged (human) (UniProt Q9Y6Q9). Kind of test: SEC-MALS.
Test [2] deals with progesterone receptor isoform A (PR-A), full-length, Strep II-tagged (human) (UniProt P06401). Kind of test: SEC-MALS.
Sequence of progesterone receptor isoform A (PR-A), full-length, Strep II-tagged (human) (P06401 165-933): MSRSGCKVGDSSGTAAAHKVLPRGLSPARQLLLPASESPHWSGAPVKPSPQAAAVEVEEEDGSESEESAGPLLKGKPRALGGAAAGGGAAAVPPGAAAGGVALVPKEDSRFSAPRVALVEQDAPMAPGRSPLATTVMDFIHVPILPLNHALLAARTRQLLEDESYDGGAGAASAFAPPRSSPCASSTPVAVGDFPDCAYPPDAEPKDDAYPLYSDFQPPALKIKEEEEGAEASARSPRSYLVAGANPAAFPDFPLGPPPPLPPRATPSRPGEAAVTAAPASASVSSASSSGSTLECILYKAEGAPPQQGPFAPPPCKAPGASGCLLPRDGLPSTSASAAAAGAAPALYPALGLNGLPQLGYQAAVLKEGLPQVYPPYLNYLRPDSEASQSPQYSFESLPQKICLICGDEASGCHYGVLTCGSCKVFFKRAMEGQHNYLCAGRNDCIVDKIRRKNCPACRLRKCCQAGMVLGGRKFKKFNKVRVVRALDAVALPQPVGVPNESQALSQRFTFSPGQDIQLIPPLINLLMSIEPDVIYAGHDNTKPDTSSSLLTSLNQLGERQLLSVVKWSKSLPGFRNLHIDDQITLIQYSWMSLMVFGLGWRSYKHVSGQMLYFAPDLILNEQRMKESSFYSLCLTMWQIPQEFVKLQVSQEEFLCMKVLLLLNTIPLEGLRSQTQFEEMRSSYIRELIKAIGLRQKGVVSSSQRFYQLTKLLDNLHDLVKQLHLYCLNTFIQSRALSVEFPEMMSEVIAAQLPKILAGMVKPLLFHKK

Sequence of steroid receptor coactivator 3 (SRC3), full-length, Strep II-tagged (human) (Q9Y6Q9 whole entry, canonical isoform): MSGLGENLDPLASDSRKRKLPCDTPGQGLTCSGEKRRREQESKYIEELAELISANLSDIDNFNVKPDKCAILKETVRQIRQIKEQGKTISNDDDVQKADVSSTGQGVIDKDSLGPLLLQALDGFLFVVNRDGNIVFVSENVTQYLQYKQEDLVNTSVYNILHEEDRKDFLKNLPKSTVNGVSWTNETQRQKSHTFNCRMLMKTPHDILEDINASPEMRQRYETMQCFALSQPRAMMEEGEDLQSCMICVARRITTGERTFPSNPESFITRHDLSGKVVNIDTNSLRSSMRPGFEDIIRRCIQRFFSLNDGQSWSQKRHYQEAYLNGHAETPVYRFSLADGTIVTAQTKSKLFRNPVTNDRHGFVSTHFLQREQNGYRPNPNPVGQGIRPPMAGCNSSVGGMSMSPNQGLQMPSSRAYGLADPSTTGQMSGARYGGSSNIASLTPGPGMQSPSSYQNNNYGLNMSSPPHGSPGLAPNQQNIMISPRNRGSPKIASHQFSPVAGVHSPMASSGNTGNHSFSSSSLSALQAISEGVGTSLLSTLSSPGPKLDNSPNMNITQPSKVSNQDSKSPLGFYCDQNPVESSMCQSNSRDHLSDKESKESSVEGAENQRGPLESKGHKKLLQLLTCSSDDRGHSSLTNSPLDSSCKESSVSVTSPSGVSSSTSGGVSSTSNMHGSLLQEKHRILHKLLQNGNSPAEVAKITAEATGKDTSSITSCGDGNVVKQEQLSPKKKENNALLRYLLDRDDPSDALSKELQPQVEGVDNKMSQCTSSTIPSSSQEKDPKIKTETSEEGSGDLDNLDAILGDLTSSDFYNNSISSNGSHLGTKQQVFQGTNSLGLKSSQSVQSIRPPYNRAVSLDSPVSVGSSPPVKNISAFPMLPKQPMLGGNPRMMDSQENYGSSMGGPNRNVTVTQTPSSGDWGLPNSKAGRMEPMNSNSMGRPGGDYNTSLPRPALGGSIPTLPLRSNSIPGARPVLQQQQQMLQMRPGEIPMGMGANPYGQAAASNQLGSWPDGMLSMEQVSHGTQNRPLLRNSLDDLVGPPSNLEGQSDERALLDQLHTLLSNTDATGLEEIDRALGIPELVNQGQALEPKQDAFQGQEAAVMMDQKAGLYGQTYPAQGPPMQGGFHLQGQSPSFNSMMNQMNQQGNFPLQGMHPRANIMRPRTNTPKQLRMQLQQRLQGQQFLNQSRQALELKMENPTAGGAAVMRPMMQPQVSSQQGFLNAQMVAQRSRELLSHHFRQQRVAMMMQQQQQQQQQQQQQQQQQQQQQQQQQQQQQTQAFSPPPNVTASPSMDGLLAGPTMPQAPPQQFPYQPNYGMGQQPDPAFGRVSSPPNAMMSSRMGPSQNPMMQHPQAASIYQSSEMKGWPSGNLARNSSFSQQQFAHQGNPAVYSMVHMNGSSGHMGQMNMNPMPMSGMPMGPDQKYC

As a reminder, the stoichiometry N is the number of molecules, sites or subunits per partner or assembly. “histone acetyltransferase p300, full-length, Strep II-tagged, Q09472 1-2414”: the stoichiometry N (p300 per SRC3) in test [1] was found to be 1. In test [2], this substance had a stoichiometry N of 0.5 p300 per PR.
